The text below walks through data of article PMC5432616 (The Protein Journal, 2017).

The data set deals with the molecule itself. The data set is described as follows: dynamic light scattering; Zetasizer Nano S, 6 μM enzyme, 50 mM Hepes pH 7.4, 0.5 M NaCl, 25 °C; also with L-Orn and α-KG at saturating concentrations.

B1: R217A variant of human ornithine δ-aminotransferase (enzyme, UniProt P04181 26-439, looked up)
chain: TSVATKKTVQGPPTSDDIFEREYKYGAHNYHPLPVALERGKGIYLWDVEGRKYFDFLSSYSAVNQGHCHPKIVNALKSQVDKLTLTSRAFYNNVLGEYEEYITKLFNYHKVLPMNTGVEAGETACKLARKWGYTVKGIQKYKAKIVFAAGNFWGRTLSAISSSTDPTSYDGFGPFMPGFDIIPYNDLPALEAALQDPNVAAFMVEPIQGEAGVVVPDPGYLMGVRELCTRHQVLFIADEIQTGLARTGRWLAVDYENVRPDIVLLGKALSGGLYPVSAVLCDDDIMLTIKPGEHGSTYGGNPLGCRVAIAALEVLEEENLAENADKLGIILRNELMKLPSDVVTAVRGKGLLNAIVIKETKDWDAWKVCLRLRDNGLLAKPTHGDIIRFAPPLVIKEDELRESIEIINKTILSF
notes: the protein as purified is reconstituted with PLP, so probably the holo-form (PLP on Lys292); A start Met from the NdeI site probably precedes T26; also called R217A mutant; dimeric variant R217A; source: E. coli BL21(DE3)pLysS, purified (DEAE Sepharose, Superdex 200)
With B1, the “stoichiometry N” value came out at 2.

As a reminder, the stoichiometry N is a count of units in the complex or per binding partner.
